Results published in publication PMC7714695.

Biological target: recombinant H2AK119Ub mono-nucleosomes (UniProt P04908)
Experiment: AlphaScreen or HTRF; Alphalisa: GST-SSX or GST-SSXdel7aa titrated against 10nM biotinylated nucleosomes; EC50 by nonlinear regression

GST-SSX1 (78aa), sequence (Q16384 111-188): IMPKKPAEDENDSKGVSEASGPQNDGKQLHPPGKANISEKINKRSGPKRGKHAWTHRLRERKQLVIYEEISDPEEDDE

- fold difference (Ub/unmod) by AlphaLisa: 4.8 fold
Substance: GST-SSX1 (78aa) (from UniProt Q16384 111-188) (domain or fragment)
